Source: patent US20220259306A1

Target: hFc-tagged NKG2A/CD94 protein (NKG2A/CD94-hFc), immunogen A (human) (UniProt P26715)
Assay: ELISA on NKG2A/CD94-hFc protein (immunogen A), OD 450 nm

Chain of hFc-tagged NKG2A/CD94 protein (NKG2A/CD94-hFc), immunogen A (human) (P26715 94-233 limits assumed, chain 1 of 2): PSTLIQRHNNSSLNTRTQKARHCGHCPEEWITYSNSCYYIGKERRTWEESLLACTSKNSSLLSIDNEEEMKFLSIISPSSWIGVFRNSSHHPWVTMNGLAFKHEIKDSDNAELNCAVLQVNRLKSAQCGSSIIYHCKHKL
Chain of hFc-tagged NKG2A/CD94 protein (NKG2A/CD94-hFc), immunogen A (human) (chain, as listed by the source limits assumed, chain 2 of 2): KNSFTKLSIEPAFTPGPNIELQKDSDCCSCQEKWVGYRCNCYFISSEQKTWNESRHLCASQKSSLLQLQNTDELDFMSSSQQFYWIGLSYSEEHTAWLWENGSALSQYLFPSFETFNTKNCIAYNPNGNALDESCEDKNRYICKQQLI

Substance | EC50 (read off the curve) [nM]
control antibody-1 | 0.06
control antibody-2 | 0.1
